The test concerns the target Human Flag-tagged RER1 TP37_38AA mutant (human). The experiment in a line: co-IP; SH-SY5Y and U251 cells co-transfected with Flag-tagged RER1 (wild type or mutant) and NEDD4-2-HA, with or without Tg (0.5 uM); gentle RIPA lysis buffer; anti-Flag or anti-HA on Protein A/G magnetic beads, 4°C overnight; immunoblot. For orientation: Immunoblotting shows a protein as a band on a membrane.

In article PMC9271913 one finds interaction in percent of wild-type RER1 (co-IP densitometry) data, which are given here for 1 substance.

Human Flag-tagged RER1 TP37_38AA mutant (human), sequence (P78508 whole entry, change not shown): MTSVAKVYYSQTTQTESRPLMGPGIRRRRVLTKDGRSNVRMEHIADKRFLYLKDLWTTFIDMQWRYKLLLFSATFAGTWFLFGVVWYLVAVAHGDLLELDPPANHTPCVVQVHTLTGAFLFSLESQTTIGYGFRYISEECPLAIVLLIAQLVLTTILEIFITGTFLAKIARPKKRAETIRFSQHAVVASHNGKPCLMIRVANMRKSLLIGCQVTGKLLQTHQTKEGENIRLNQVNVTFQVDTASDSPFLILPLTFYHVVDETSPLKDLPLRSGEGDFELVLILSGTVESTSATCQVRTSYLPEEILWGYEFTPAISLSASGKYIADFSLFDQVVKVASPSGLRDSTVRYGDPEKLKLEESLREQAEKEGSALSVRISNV

For “Human HA-tagged NEDD4-2 (from UniProt Q96PU5-5 1-955) (natural protein)”, the interaction in percent of wild-type RER1 (co-IP densitometry) is 30 to 40%.
